Test results from paper PMC4157582.

Target: TAP-Mud13p (S. cerevisiae) (UniProt Q08920)
Experiment: pull-down

UniProt Q08920, sequence (Q08920 whole entry): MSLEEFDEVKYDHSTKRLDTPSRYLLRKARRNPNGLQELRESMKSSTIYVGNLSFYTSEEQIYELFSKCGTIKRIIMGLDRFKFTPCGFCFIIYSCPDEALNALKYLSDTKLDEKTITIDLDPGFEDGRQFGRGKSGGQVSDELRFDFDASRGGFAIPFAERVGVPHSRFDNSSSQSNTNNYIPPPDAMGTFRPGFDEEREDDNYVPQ

percent reduction of the interaction efficiency against wild-type Tif4631p: > 30%
B1: Tif4631p Δ491-501 (natural protein)
chain: MTDETAHPTQSASKQESAALKQTGDDQQESQQQRGYTNYNNGSNYTQKKPYNSNRPHQQRGGKFGPNRYNNRGNYNGGGSFRGGHMGANSSNVPWTGYYNNYPVYYQPQQMAAAGSAPANPIPVEEKSPVPTKIEITTKSGEHLDLKEQHKAKLQSQERSTVSPQPESKLKETSDSTSTSTPTPTPSTNDSKASSEENISEAEKTRRNFIEQVKLRKAALEKKRKEQLEGSSGNNNIPMKTTPENVEEKGSDKPEVTEKTKPAEEKSAEPEVKQETPAEEGEQGEKGQIKEESTPKVLTFAERLKLKKQQKEREEKTEGKENKEVPVQEETKSAIESAPVPPSEQVKEETEVAETEQSNIDESATTPAIPTKSDEAEAEVEAEAGDAGTKIGLEAEIETTTDETDDGTNTVSHILNVLKDATPIEDVFSFNYPEGIEGPDIKYKKEHVKYTYGPTFLLQFKDKLNVKADAEWVQSTASKIVIPPGMGRGNSSRGHDFRNTSVRNMDDRANSRTSSKRRSKRMNDDRRSNRSYTSRRDRERGSYRNEEKREDDKPKEEVAPLVPSANRWVPKFKSKKTEKKLAPDGKTELLDKDEVERKMKSLLNKLTLEMFDAISSEILAIANISVWETNGETLKAVIEQIFLKACDEPHWSSMYAQLCGKVVKELNPDITDETNEGKTGPKLVLHYLVARCHAEFDKGWTDKLPTNEDGTPLEPEMMSEEYYAAASAKRRGLGLVRFIGFLYRLNLLTGKMMFECFRRLMKDLTDSPSEETLESVVELLNTVGEQFETDSFRTGQATLEGSQLLDSLFGILDNIIQTAKISSRIKFKLIDIKELRHDKNWNSDKKDNGPKTIQQIHEEEERQRQLKNNSRSNSRRTNNSSNRHSFRRDAPPASKDSFITTRTYSQRNSQRAPPPKEEPAAPTSTATNMFSALMGESDDEE
modifications: 35S-labelled
